Measured values taken from patent US20140087995A1 (published 2014).
Numbered stars: 1 amine (or outer) side, 2 acyl side, 3 side chain; on linkers, the order of the positions; unused ones are H or OH. Bridge positions count the residues as written; N and C are the ends. * marks the point of attachment. C20 diacid = O=C(O)CCCCCCCCCCCCCCCCCCC(=O)*; γGlu = O=C(O)[C@H](CCC(=O)[*:2])N[*:1]

Legend:
[1] = molecular target: T1, human calcitonin receptor (human, UniProt P30988 25-474); experiment: IC50 at hCTR divided by IC50 at hAmylin-R (reference)
T1 construct: whole, on cells; Membranes of a BHK tk'ts 13 cell line stably transfected with the human calcitonin receptor; also called hCTR; hCT
T1 sequence (looked up): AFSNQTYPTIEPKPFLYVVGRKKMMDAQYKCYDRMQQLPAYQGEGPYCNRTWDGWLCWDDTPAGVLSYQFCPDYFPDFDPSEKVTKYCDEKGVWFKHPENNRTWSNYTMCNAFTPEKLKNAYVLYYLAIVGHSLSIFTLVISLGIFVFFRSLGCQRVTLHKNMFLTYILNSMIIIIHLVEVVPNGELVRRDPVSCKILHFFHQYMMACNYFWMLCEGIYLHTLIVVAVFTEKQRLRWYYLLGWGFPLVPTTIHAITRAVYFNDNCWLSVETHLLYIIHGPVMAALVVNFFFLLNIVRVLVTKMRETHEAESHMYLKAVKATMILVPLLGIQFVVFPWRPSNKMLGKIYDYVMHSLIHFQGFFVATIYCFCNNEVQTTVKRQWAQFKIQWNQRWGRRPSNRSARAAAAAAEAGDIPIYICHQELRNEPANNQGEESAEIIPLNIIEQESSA
Method in brief: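 Competition binding by SPA with cell membranes (35 ng/μL) and SPA beads in 50 mM Hepes pH 7.4 with 1 mM CaCl2, 5 mM MgCl2, 0.1% OA and 0.02% Tween20. Incubated 120 min at 25 °C with shaking, then counted.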

rat calcitonin receptor [2] = molecular target: T2, rat calcitonin receptor (rat, UniProt P32214 25-516); experiment: SPA competition vs 125I-calcitonin, membranes with rat CTR (Assay VIII)
T2 construct: whole, on cells; Membranes of BHK tk'ts 13 cells transiently transfected with the rat calcitonin receptor; also called rCTR; rat calcitonin (a) receptor
T2 sequence (looked up): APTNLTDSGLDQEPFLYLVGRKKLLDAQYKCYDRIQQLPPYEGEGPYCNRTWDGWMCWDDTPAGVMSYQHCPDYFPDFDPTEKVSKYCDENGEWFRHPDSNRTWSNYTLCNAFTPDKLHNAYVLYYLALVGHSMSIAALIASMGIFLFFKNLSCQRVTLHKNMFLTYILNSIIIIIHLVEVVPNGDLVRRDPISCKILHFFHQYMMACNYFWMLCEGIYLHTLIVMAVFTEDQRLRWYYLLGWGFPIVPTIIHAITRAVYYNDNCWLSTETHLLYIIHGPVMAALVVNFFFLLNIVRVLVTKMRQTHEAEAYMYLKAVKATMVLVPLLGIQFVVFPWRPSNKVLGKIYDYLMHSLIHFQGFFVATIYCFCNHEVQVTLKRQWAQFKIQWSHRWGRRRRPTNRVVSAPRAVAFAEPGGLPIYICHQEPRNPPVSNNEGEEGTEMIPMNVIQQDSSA

[3] = molecular target: T3, rat amylin receptor (rat calcitonin receptor + rat RAMP 3) (rat, UniProt P32214 25-516; Q9JJ73 23-147); experiment: SPA competition vs 125I-rat amylin, membranes with rat CTR + rat RAMP3 (Assay VI)
T3 construct: whole, on cells; Membranes of BHK tk'ts 13 cells transiently transfected with the rat calcitonin receptor and rat RAMP 3; also called rAmylin-R; rat amylin 3(a) receptor
T3 sequence (looked up) 1: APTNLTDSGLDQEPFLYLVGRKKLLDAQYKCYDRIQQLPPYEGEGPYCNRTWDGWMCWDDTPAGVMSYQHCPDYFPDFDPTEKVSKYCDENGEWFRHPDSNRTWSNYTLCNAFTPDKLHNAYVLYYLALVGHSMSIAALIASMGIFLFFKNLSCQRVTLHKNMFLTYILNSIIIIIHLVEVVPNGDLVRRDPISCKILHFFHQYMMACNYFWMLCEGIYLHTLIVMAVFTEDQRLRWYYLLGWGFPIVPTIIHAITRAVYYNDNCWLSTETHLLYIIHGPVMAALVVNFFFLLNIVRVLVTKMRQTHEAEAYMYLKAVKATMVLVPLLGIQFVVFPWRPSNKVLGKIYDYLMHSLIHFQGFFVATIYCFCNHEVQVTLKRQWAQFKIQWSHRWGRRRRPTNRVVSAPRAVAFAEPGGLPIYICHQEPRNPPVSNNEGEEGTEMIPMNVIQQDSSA
T3 sequence (looked up) 2: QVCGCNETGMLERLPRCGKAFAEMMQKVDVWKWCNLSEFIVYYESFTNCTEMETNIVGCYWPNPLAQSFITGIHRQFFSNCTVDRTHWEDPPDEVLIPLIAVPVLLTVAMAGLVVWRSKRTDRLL

rat calcitonin receptor [4] = molecular target: T2, rat calcitonin receptor; experiment: IC50 at rCTR divided by IC50 at rAmylin-R (reference)

Ratio hCT/hAmylin binding [1]	IC50 (rat calcitonin receptor [2]) [nM]	IC50 [3] [nM]	Ratio rCT/rAmylin binding (rat calcitonin receptor [4])	Binder
16	26.5	0.619	42.8	{C20 diacid-γGlu}-KCNTATCATQRLAEFLRHSSPNFGAIPSSTPVGSNTY-NH2 (disulfide 2-7; SMILES CC[C@H](C)[C@H](NC(=O)[C@H](C)NC(=O)CNC(=O)[C@H](Cc1ccccc1)NC(=O)[C@H](CC(N)=O)NC(=O)[C@@H]1CCCN1C(=O)[C@H](CO)NC(=O)[C@H](CO)NC(=O)[C@H](Cc1c[nH]cn1)NC(=O)[C@H](CCCNC(=N)N)NC(=O)[C@H](CC(C)C)NC(=O)[C@H](Cc1ccccc1)NC(=O)[C@H](CCC(=O)O)NC(=O)[C@H](C)NC(=O)[C@H](CC(C)C)NC(=O)[C@H](CCCNC(=N)N)NC(=O)[C@H](CCC(N)=O)NC(=O)[C@@H](NC(=O)[C@H](C)NC(=O)[C@@H]1CSSC[C@H](NC(=O)[C@H](CCCCN)NC(=O)CC[C@H](NC(=O)CCCCCCCCCCCCCCCCCCC(=O)O)C(=O)O)C(=O)N[C@@H](CC(N)=O)C(=O)N[C@@H]([C@@H](C)O)C(=O)N[C@@H](C)C(=O)N[C@@H]([C@@H](C)O)C(=O)N1)[C@@H](C)O)C(=O)N1CCC[C@H]1C(=O)N[C@@H](CO)C(=O)N[C@@H](CO)C(=O)N[C@H](C(=O)N1CCC[C@H]1C(=O)N[C@H](C(=O)NCC(=O)N[C@@H](CO)C(=O)N[C@@H](CC(N)=O)C(=O)N[C@H](C(=O)N[C@@H](Cc1ccc(O)cc1)C(N)=O)[C@@H](C)O)C(C)C)[C@@H](C)O, modifications are with respect to human amylin; also called compound 31)
10.9	5.98	0.176	34	{C20 diacid-γGlu}-KCNTATCATQRLAEFLRHSSPNFGAIPSSTNVGPNTY-NH2 (disulfide 2-7; SMILES CC[C@H](C)[C@H](NC(=O)[C@H](C)NC(=O)CNC(=O)[C@H](Cc1ccccc1)NC(=O)[C@H](CC(N)=O)NC(=O)[C@@H]1CCCN1C(=O)[C@H](CO)NC(=O)[C@H](CO)NC(=O)[C@H](Cc1c[nH]cn1)NC(=O)[C@H](CCCNC(=N)N)NC(=O)[C@H](CC(C)C)NC(=O)[C@H](Cc1ccccc1)NC(=O)[C@H](CCC(=O)O)NC(=O)[C@H](C)NC(=O)[C@H](CC(C)C)NC(=O)[C@H](CCCNC(=N)N)NC(=O)[C@H](CCC(N)=O)NC(=O)[C@@H](NC(=O)[C@H](C)NC(=O)[C@@H]1CSSC[C@H](NC(=O)[C@H](CCCCN)NC(=O)CC[C@H](NC(=O)CCCCCCCCCCCCCCCCCCC(=O)O)C(=O)O)C(=O)N[C@@H](CC(N)=O)C(=O)N[C@@H]([C@@H](C)O)C(=O)N[C@@H](C)C(=O)N[C@@H]([C@@H](C)O)C(=O)N1)[C@@H](C)O)C(=O)N1CCC[C@H]1C(=O)N[C@@H](CO)C(=O)N[C@@H](CO)C(=O)N[C@H](C(=O)N[C@@H](CC(N)=O)C(=O)N[C@H](C(=O)NCC(=O)N1CCC[C@H]1C(=O)N[C@@H](CC(N)=O)C(=O)N[C@H](C(=O)N[C@@H](Cc1ccc(O)cc1)C(N)=O)[C@@H](C)O)C(C)C)[C@@H](C)O, modifications are with respect to human amylin; also called compound 32)
3.9	28.9	2.29	12.6	{C20 diacid-γGlu}-KCNTATCATQRLAEFLRHSSPNFGAILPSTNVGSETY-NH2 (disulfide 2-7, modifications are with respect to human amylin; also called compound 33)

Continued, binder first:

Binder	Ratio hCT/hAmylin binding [1]	IC50 (rat calcitonin receptor [2]) [nM]	IC50 [3] [nM]	Ratio rCT/rAmylin binding (rat calcitonin receptor [4])
{C20 diacid-γGlu}-KCNTATCATQRLAEFLRHSSPNFGAIPSSTNVGHNTY-NH2 (disulfide 2-7; SMILES CC[C@H](C)[C@H](NC(=O)[C@H](C)NC(=O)CNC(=O)[C@H](Cc1ccccc1)NC(=O)[C@H](CC(N)=O)NC(=O)[C@@H]1CCCN1C(=O)[C@H](CO)NC(=O)[C@H](CO)NC(=O)[C@H](Cc1c[nH]cn1)NC(=O)[C@H](CCCNC(=N)N)NC(=O)[C@H](CC(C)C)NC(=O)[C@H](Cc1ccccc1)NC(=O)[C@H](CCC(=O)O)NC(=O)[C@H](C)NC(=O)[C@H](CC(C)C)NC(=O)[C@H](CCCNC(=N)N)NC(=O)[C@H](CCC(N)=O)NC(=O)[C@@H](NC(=O)[C@H](C)NC(=O)[C@@H]1CSSC[C@H](NC(=O)[C@H](CCCCN)NC(=O)CC[C@H](NC(=O)CCCCCCCCCCCCCCCCCCC(=O)O)C(=O)O)C(=O)N[C@@H](CC(N)=O)C(=O)N[C@@H]([C@@H](C)O)C(=O)N[C@@H](C)C(=O)N[C@@H]([C@@H](C)O)C(=O)N1)[C@@H](C)O)C(=O)N1CCC[C@H]1C(=O)N[C@@H](CO)C(=O)N[C@@H](CO)C(=O)N[C@H](C(=O)N[C@@H](CC(N)=O)C(=O)N[C@H](C(=O)NCC(=O)N[C@@H](Cc1c[nH]cn1)C(=O)N[C@@H](CC(N)=O)C(=O)N[C@H](C(=O)N[C@@H](Cc1ccc(O)cc1)C(N)=O)[C@@H](C)O)C(C)C)[C@@H](C)O, modifications are with respect to human amylin; also called compound 17)	12.5	97.2	2.71	35.9
{C20 diacid-γGlu}-KCNTATCATQRLAEFLRHSSPNFGAIPSSTNVGSHTY-NH2 (disulfide 2-7; SMILES CC[C@H](C)[C@H](NC(=O)[C@H](C)NC(=O)CNC(=O)[C@H](Cc1ccccc1)NC(=O)[C@H](CC(N)=O)NC(=O)[C@@H]1CCCN1C(=O)[C@H](CO)NC(=O)[C@H](CO)NC(=O)[C@H](Cc1c[nH]cn1)NC(=O)[C@H](CCCNC(=N)N)NC(=O)[C@H](CC(C)C)NC(=O)[C@H](Cc1ccccc1)NC(=O)[C@H](CCC(=O)O)NC(=O)[C@H](C)NC(=O)[C@H](CC(C)C)NC(=O)[C@H](CCCNC(=N)N)NC(=O)[C@H](CCC(N)=O)NC(=O)[C@@H](NC(=O)[C@H](C)NC(=O)[C@@H]1CSSC[C@H](NC(=O)[C@H](CCCCN)NC(=O)CC[C@H](NC(=O)CCCCCCCCCCCCCCCCCCC(=O)O)C(=O)O)C(=O)N[C@@H](CC(N)=O)C(=O)N[C@@H]([C@@H](C)O)C(=O)N[C@@H](C)C(=O)N[C@@H]([C@@H](C)O)C(=O)N1)[C@@H](C)O)C(=O)N1CCC[C@H]1C(=O)N[C@@H](CO)C(=O)N[C@@H](CO)C(=O)N[C@H](C(=O)N[C@@H](CC(N)=O)C(=O)N[C@H](C(=O)NCC(=O)N[C@@H](CO)C(=O)N[C@@H](Cc1c[nH]cn1)C(=O)N[C@H](C(=O)N[C@@H](Cc1ccc(O)cc1)C(N)=O)[C@@H](C)O)C(C)C)[C@@H](C)O, modifications are with respect to human amylin; also called compound 18)	9.2	13	0.476	27.3
{C20 diacid-γGlu}-KCNTATCATQRLAEFLRHSSPNFGAIPSPTNVGSNTY-NH2 (disulfide 2-7; SMILES CC[C@H](C)[C@H](NC(=O)[C@H](C)NC(=O)CNC(=O)[C@H](Cc1ccccc1)NC(=O)[C@H](CC(N)=O)NC(=O)[C@@H]1CCCN1C(=O)[C@H](CO)NC(=O)[C@H](CO)NC(=O)[C@H](Cc1c[nH]cn1)NC(=O)[C@H](CCCNC(=N)N)NC(=O)[C@H](CC(C)C)NC(=O)[C@H](Cc1ccccc1)NC(=O)[C@H](CCC(=O)O)NC(=O)[C@H](C)NC(=O)[C@H](CC(C)C)NC(=O)[C@H](CCCNC(=N)N)NC(=O)[C@H](CCC(N)=O)NC(=O)[C@@H](NC(=O)[C@H](C)NC(=O)[C@@H]1CSSC[C@H](NC(=O)[C@H](CCCCN)NC(=O)CC[C@H](NC(=O)CCCCCCCCCCCCCCCCCCC(=O)O)C(=O)O)C(=O)N[C@@H](CC(N)=O)C(=O)N[C@@H]([C@@H](C)O)C(=O)N[C@@H](C)C(=O)N[C@@H]([C@@H](C)O)C(=O)N1)[C@@H](C)O)C(=O)N1CCC[C@H]1C(=O)N[C@@H](CO)C(=O)N1CCC[C@H]1C(=O)N[C@H](C(=O)N[C@@H](CC(N)=O)C(=O)N[C@H](C(=O)NCC(=O)N[C@@H](CO)C(=O)N[C@@H](CC(N)=O)C(=O)N[C@H](C(=O)N[C@@H](Cc1ccc(O)cc1)C(N)=O)[C@@H](C)O)C(C)C)[C@@H](C)O, modifications are with respect to human amylin; also called compound 37)	2.3	7.35	0.514	14.3
